Measured values reported in the supplement of paper PMC10567573.

B1: ZNF75A (parent)
chain: RTHTGEQPYTCSICRRNFSRRSSL

Variants of: B1
Assay: protein stability index of a GFP-peptide fusion (GPS, HEK-293T) (PSI 1-6); higher = more stable
Conditions: c terminus: a fixed tail appended
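Also: lentivirally expressed fusions sorted by FACS into six bins by GFP to DsRed ratio, PSI derived from sequencing read proportions per bin multiplied by bin number.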

Q: Which protein stability index does the source give for REHTGEQPYTCSICRRNFSRRSSL [T2E] here?
A: 2.78

Q: Which protein stability index does the source give for RFHTGEQPYTCSICRRNFSRRSSL [T2F] here?
A: 3.15

Q: For RGHTGEQPYTCSICRRNFSRRSSL [T2G], which protein stability index is on record?
A: 2.77

Q: Which protein stability index does the source give for RHHTGEQPYTCSICRRNFSRRSSL [T2H] here?
A: 3.33

Q: For RIHTGEQPYTCSICRRNFSRRSSL [T2I], which protein stability index is on record?
A: 2.63

Q: Which protein stability index does the source give for RKHTGEQPYTCSICRRNFSRRSSL [T2K] here?
A: 2.47

Q: Which protein stability index does the source give for RLHTGEQPYTCSICRRNFSRRSSL [T2L] here?
A: 2.82

Q: Which protein stability index does the source give for RMHTGEQPYTCSICRRNFSRRSSL [T2M] here?
A: 2.68

Q: Which protein stability index does the source give for RNHTGEQPYTCSICRRNFSRRSSL [T2N] here?
A: 2.52

Q: For RQHTGEQPYTCSICRRNFSRRSSL [T2Q], which protein stability index is on record?
A: 2.38

Q: For RRHTGEQPYTCSICRRNFSRRSSL [T2R], which protein stability index is on record?
A: 3.46

Q: For RSHTGEQPYTCSICRRNFSRRSSL [T2S], which protein stability index is on record?
A: 2.53

Q: With RVHTGEQPYTCSICRRNFSRRSSL [T2V] as the variant, how does the protein stability index read?
A: 2.88

Q: Which protein stability index does the source give for RWHTGEQPYTCSICRRNFSRRSSL [T2W] here?
A: 2.17

Q: For RYHTGEQPYTCSICRRNFSRRSSL [T2Y], which protein stability index is on record?
A: 2.81

Q: Which protein stability index does the source give for RTATGEQPYTCSICRRNFSRRSSL [H3A] here?
A: 2.69

Q: With RTCTGEQPYTCSICRRNFSRRSSL [H3C] as the variant, how does the protein stability index read?
A: 2.85

Q: For RTDTGEQPYTCSICRRNFSRRSSL [H3D], which protein stability index is on record?
A: 3.18

Q: Which protein stability index does the source give for RTETGEQPYTCSICRRNFSRRSSL [H3E] here?
A: 3.1

Q: With RTFTGEQPYTCSICRRNFSRRSSL [H3F] as the variant, how does the protein stability index read?
A: 3.25

Q: For RTGTGEQPYTCSICRRNFSRRSSL [H3G], which protein stability index is on record?
A: 2.76

Q: For RTITGEQPYTCSICRRNFSRRSSL [H3I], which protein stability index is on record?
A: 3.08

Q: Which protein stability index does the source give for RTKTGEQPYTCSICRRNFSRRSSL [H3K] here?
A: 3.06

Q: Which protein stability index does the source give for RTLTGEQPYTCSICRRNFSRRSSL [H3L] here?
A: 2.75

Q: Which protein stability index does the source give for RTMTGEQPYTCSICRRNFSRRSSL [H3M] here?
A: 2.57

Q: Which protein stability index does the source give for RTNTGEQPYTCSICRRNFSRRSSL [H3N] here?
A: 3.82

Q: For RTPTGEQPYTCSICRRNFSRRSSL [H3P], which protein stability index is on record?
A: 3.17

Q: With RTQTGEQPYTCSICRRNFSRRSSL [H3Q] as the variant, how does the protein stability index read?
A: 2.64

Q: With RTRTGEQPYTCSICRRNFSRRSSL [H3R] as the variant, how does the protein stability index read?
A: 3.47

Q: With RTSTGEQPYTCSICRRNFSRRSSL [H3S] as the variant, how does the protein stability index read?
A: 3.16

Q: Which protein stability index does the source give for RTTTGEQPYTCSICRRNFSRRSSL [H3T] here?
A: 2.76

Q: For RTVTGEQPYTCSICRRNFSRRSSL [H3V], which protein stability index is on record?
A: 2.65

Q: Which protein stability index does the source give for RTWTGEQPYTCSICRRNFSRRSSL [H3W] here?
A: 2.15

Q: Which protein stability index does the source give for RTYTGEQPYTCSICRRNFSRRSSL [H3Y] here?
A: 2.73

Q: With RTHAGEQPYTCSICRRNFSRRSSL [T4A] as the variant, how does the protein stability index read?
A: 2.8

Q: With RTHCGEQPYTCSICRRNFSRRSSL [T4C] as the variant, how does the protein stability index read?
A: 2.15

Q: With RTHDGEQPYTCSICRRNFSRRSSL [T4D] as the variant, how does the protein stability index read?
A: 3.31

Q: Which protein stability index does the source give for RTHEGEQPYTCSICRRNFSRRSSL [T4E] here?
A: 3.27

Q: With RTHFGEQPYTCSICRRNFSRRSSL [T4F] as the variant, how does the protein stability index read?
A: 3.28

Q: With RTHGGEQPYTCSICRRNFSRRSSL [T4G] as the variant, how does the protein stability index read?
A: 2.91

Q: For RTHHGEQPYTCSICRRNFSRRSSL [T4H], which protein stability index is on record?
A: 3.03

Q: With RTHIGEQPYTCSICRRNFSRRSSL [T4I] as the variant, how does the protein stability index read?
A: 3.36

Q: With RTHKGEQPYTCSICRRNFSRRSSL [T4K] as the variant, how does the protein stability index read?
A: 2.77

Q: With RTHLGEQPYTCSICRRNFSRRSSL [T4L] as the variant, how does the protein stability index read?
A: 2.96

Q: Which protein stability index does the source give for RTHMGEQPYTCSICRRNFSRRSSL [T4M] here?
A: 2.66

Q: Which protein stability index does the source give for RTHNGEQPYTCSICRRNFSRRSSL [T4N] here?
A: 3.85

Q: For RTHPGEQPYTCSICRRNFSRRSSL [T4P], which protein stability index is on record?
A: 2.4

Q: With RTHQGEQPYTCSICRRNFSRRSSL [T4Q] as the variant, how does the protein stability index read?
A: 2.33

Q: With RTHRGEQPYTCSICRRNFSRRSSL [T4R] as the variant, how does the protein stability index read?
A: 3.08

Q: Which protein stability index does the source give for RTHSGEQPYTCSICRRNFSRRSSL [T4S] here?
A: 3.14

Q: With RTHVGEQPYTCSICRRNFSRRSSL [T4V] as the variant, how does the protein stability index read?
A: 3.29

Q: For RTHWGEQPYTCSICRRNFSRRSSL [T4W], which protein stability index is on record?
A: 2.1

Q: For RTHYGEQPYTCSICRRNFSRRSSL [T4Y], which protein stability index is on record?
A: 3.04

Q: Which protein stability index does the source give for RTHTAEQPYTCSICRRNFSRRSSL [G5A] here?
A: 2.98

Q: Which protein stability index does the source give for RTHTCEQPYTCSICRRNFSRRSSL [G5C] here?
A: 4.64

Q: With RTHTDEQPYTCSICRRNFSRRSSL [G5D] as the variant, how does the protein stability index read?
A: 3.06

Q: With RTHTEEQPYTCSICRRNFSRRSSL [G5E] as the variant, how does the protein stability index read?
A: 3.45

Q: With RTHTFEQPYTCSICRRNFSRRSSL [G5F] as the variant, how does the protein stability index read?
A: 3.38

Q: With RTHTHEQPYTCSICRRNFSRRSSL [G5H] as the variant, how does the protein stability index read?
A: 3.52

Q: For RTHTIEQPYTCSICRRNFSRRSSL [G5I], which protein stability index is on record?
A: 3.82

Q: For RTHTKEQPYTCSICRRNFSRRSSL [G5K], which protein stability index is on record?
A: 2.74

Q: With RTHTLEQPYTCSICRRNFSRRSSL [G5L] as the variant, how does the protein stability index read?
A: 2.73

Q: Which protein stability index does the source give for RTHTMEQPYTCSICRRNFSRRSSL [G5M] here?
A: 2.86

Q: For RTHTNEQPYTCSICRRNFSRRSSL [G5N], which protein stability index is on record?
A: 2.81

Q: For RTHTPEQPYTCSICRRNFSRRSSL [G5P], which protein stability index is on record?
A: 2.78

Q: For RTHTQEQPYTCSICRRNFSRRSSL [G5Q], which protein stability index is on record?
A: 2.81

Q: With RTHTREQPYTCSICRRNFSRRSSL [G5R] as the variant, how does the protein stability index read?
A: 3.07

Q: With RTHTSEQPYTCSICRRNFSRRSSL [G5S] as the variant, how does the protein stability index read?
A: 2.61

Q: Which protein stability index does the source give for RTHTTEQPYTCSICRRNFSRRSSL [G5T] here?
A: 3.25

Q: For RTHTVEQPYTCSICRRNFSRRSSL [G5V], which protein stability index is on record?
A: 2.76

Q: Which protein stability index does the source give for RTHTWEQPYTCSICRRNFSRRSSL [G5W] here?
A: 2.55

Q: For RTHTYEQPYTCSICRRNFSRRSSL [G5Y], which protein stability index is on record?
A: 2.21

Q: With RTHTGAQPYTCSICRRNFSRRSSL [E6A] as the variant, how does the protein stability index read?
A: 2.86

Q: For RTHTGCQPYTCSICRRNFSRRSSL [E6C], which protein stability index is on record?
A: 3.96

Q: Which protein stability index does the source give for RTHTGDQPYTCSICRRNFSRRSSL [E6D] here?
A: 2.49

Q: For RTHTGFQPYTCSICRRNFSRRSSL [E6F], which protein stability index is on record?
A: 3.33

Q: With RTHTGGQPYTCSICRRNFSRRSSL [E6G] as the variant, how does the protein stability index read?
A: 2.55

Q: Which protein stability index does the source give for RTHTGHQPYTCSICRRNFSRRSSL [E6H] here?
A: 3.12

Q: With RTHTGIQPYTCSICRRNFSRRSSL [E6I] as the variant, how does the protein stability index read?
A: 3.05

Q: Which protein stability index does the source give for RTHTGKQPYTCSICRRNFSRRSSL [E6K] here?
A: 2.97

Q: With RTHTGLQPYTCSICRRNFSRRSSL [E6L] as the variant, how does the protein stability index read?
A: 2.52

Q: With RTHTGMQPYTCSICRRNFSRRSSL [E6M] as the variant, how does the protein stability index read?
A: 2.5

Q: For RTHTGNQPYTCSICRRNFSRRSSL [E6N], which protein stability index is on record?
A: 2.5

Q: For RTHTGPQPYTCSICRRNFSRRSSL [E6P], which protein stability index is on record?
A: 2.63

Q: Which protein stability index does the source give for RTHTGQQPYTCSICRRNFSRRSSL [E6Q] here?
A: 2.62

Q: For RTHTGRQPYTCSICRRNFSRRSSL [E6R], which protein stability index is on record?
A: 2.58

Q: Which protein stability index does the source give for RTHTGSQPYTCSICRRNFSRRSSL [E6S] here?
A: 2.3

Q: With RTHTGTQPYTCSICRRNFSRRSSL [E6T] as the variant, how does the protein stability index read?
A: 2.94

Q: With RTHTGVQPYTCSICRRNFSRRSSL [E6V] as the variant, how does the protein stability index read?
A: 1.93

Q: For RTHTGWQPYTCSICRRNFSRRSSL [E6W], which protein stability index is on record?
A: 2.02

Q: For RTHTGYQPYTCSICRRNFSRRSSL [E6Y], which protein stability index is on record?
A: 2.44

Q: For RTHTGEAPYTCSICRRNFSRRSSL [Q7A], which protein stability index is on record?
A: 3.14

Q: Which protein stability index does the source give for RTHTGECPYTCSICRRNFSRRSSL [Q7C] here?
A: 4.67

Q: For RTHTGEDPYTCSICRRNFSRRSSL [Q7D], which protein stability index is on record?
A: 3.42
